Assay results published in publication PMC2397435 (2008).

B1: Gal4 DBD-HIV-1 p6 (wild type) [HIV-1 (pNL4-3)] / Gal4 AD-ALIX (868 amino acid-long) [not stated] (parent complex)
chain 1: LQSRPEPTAPPEESFRFGEETTTPSQKQEPIDKELYPLTSLRSLFGSDPSSQ
chain 2: MATFISVQLKKTSEVDLAKPLVKFIQQTYPSGGEEQAQYCRAAEELSKLRRAAVGRPLDKHEGALETLLRYYDQICSIEPKFPFSENQICLTFTWKDAFDKGSLFGGSVKLALASLGYEKSCVLFNCAALASQIAAEQNLDNDEGLKIAAKHYQFASGAFLHIKETVLSALSREPTVDISPDTVGTLSLIMLAQAQEVFFLKATRDKMKDAIIAKLANQAADYFGDAFKQCQYKDTLPKEVFPVLAAKHCIMQANAEYHQSILAKQQKKFGEEIARLQHAAELIKTVASRYDEYVNVKDFSDKINRALAAAKKDNDFIYHDRVPDLKDLDPIGKATLVKSTPVNVPISQKFTDLFEKMVPVSVQQSLAAYNQRKADLVNRSIAQMREATTLANGVLASLNLPAAIEDVSGDTVPQSILTKSRSVIEQGGIQTVDQLIKELPELLQRNREILDESLRLLDEEEATDNDLRAKFKERWQRTPSNELYKPLRAEGTNFRTVLDKAVQADGQVKECYQSHRDTIVLLCKPEPELNAAIPSANPAKTMQGSEVVNVLKSLLSNLDEVKKEREGLENDLKSVNFDMTSKFLTALAQDGVINEEALSVTELDRVYGGLTTKVQESLKKQEGLLKNIQVSHQEFSKMKQSNNEANLREEVLKNLATAYDNFVELVANLKEGTKFYNELTEILVRFQNKCSDIVFARKTERDELLKDLQQSIAREPSAPSIPTPAYQSSPAGGHAPTPPTPAPRTMPPTKPQPPARPPPPVLPANRAPSATAPSPVGAGTAAPAPSQTPGSAPPPQAQGPPYPTYPGYPGYCQMPMPMGYNPYAYGQYNMPYPPVYHQSPGQAPYPGPQQPSYPFPQPPQQSYYPQQ

Variants of: B1
Experiment: yeast two-hybrid, liquid β-galactosidase assay; yeast AH109, 30°C, SD/-Leu/-Trp selection medium; triplicate; parent: 1; read off a plot
For chain 1 L35A, the ratio to parent was ~0.2.
Variant chain 1 S40A has a ratio to parent of ~1.
In the case of chain 1 P37A, the ratio to parent is reported as ~0.3.
In the case of chain 1 L41A, the ratio to parent is reported as ~0.15.
Work on chain 1 L44A yielded a ratio to parent of ~0.6.
chain 1 K33A was tested, and the ratio to parent was ~1.
With chain 1 F45A the ratio to parent was ~1.
chain 1 G46A gave a ratio to parent of ~0.95.
chain 1 T39A gave a ratio to parent of ~1.1.
With chain 1 I31A the ratio to parent was ~0.95.
chain 1 S43A showed a ratio to parent of ~0.8.
Work on chain 1 R42A yielded a ratio to parent of ~0.25.
chain 1 E34A gave a ratio to parent of ~0.35.
Work on chain 1 D32A yielded a ratio to parent of ~0.86.
